PMC11074019

How the values were obtained:
[1] = biological target: Transient receptor potential channel ankyrin 1 (TRPA1) (human (endogenous in MDA-MB-231)) (UniProt O75762)
[2] = biological target: Transient receptor potential channel ankyrin 1 (TRPA1) (human (endogenous in MDA-MB-231)) (UniProt O75762); remark: listed apart in the source

Sequence of UniProt O75762 (O75762 whole entry): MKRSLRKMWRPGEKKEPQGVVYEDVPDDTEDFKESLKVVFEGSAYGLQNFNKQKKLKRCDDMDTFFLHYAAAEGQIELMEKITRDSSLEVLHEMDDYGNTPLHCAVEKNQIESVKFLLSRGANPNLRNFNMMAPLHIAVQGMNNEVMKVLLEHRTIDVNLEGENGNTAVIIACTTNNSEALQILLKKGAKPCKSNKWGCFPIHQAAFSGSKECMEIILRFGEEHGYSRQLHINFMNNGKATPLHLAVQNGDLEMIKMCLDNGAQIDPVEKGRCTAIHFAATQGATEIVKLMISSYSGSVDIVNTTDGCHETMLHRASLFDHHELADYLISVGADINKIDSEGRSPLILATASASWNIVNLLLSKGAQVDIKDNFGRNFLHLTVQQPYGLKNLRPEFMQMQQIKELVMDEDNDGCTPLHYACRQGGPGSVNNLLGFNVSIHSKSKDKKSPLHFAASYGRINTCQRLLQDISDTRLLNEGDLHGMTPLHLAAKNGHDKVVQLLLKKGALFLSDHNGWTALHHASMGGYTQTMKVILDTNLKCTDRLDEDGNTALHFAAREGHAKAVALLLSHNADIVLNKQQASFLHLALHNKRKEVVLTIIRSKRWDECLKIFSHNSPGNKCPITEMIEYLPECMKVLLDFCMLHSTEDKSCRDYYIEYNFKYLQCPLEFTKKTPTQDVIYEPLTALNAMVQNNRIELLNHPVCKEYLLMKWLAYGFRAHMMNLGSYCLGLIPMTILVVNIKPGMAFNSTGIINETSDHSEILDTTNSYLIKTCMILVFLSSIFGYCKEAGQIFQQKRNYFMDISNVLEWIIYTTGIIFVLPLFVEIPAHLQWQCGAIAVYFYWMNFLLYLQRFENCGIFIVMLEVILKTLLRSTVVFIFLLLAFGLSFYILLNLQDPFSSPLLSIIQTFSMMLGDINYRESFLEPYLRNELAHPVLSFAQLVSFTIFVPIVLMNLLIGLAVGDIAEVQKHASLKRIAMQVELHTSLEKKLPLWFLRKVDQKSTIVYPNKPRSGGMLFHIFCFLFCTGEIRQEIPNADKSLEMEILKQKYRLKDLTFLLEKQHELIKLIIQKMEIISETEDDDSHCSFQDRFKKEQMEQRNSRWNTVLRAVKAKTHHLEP

Recombinant rat NCS-1 (Ca2+-free) (from UniProt P62168 1-190) (natural protein)
open probability (Po) of AITC-activated TRPA1 single channels in inside-out patches of MDA-MB-231 CTR cells, with NCS-1 (10 μM) vs without [1]: 0.883
inward conductance (IG TRPA1) in inside-out patches of MDA-MB-231 CTR cells, without vs with NCS-1 [2]: 104 pS
inward conductance (IG TRPA1) in inside-out patches of SH-SY5Y cells, without vs with NCS-1 [2]: 110 pS
outward conductance (OG TRPA1) in inside-out patches of MDA-MB-231 CTR cells, without vs with NCS-1 [2]: 155 pS
outward conductance (OG TRPA1) in inside-out patches of SH-SY5Y cells, without vs with NCS-1 [2]: 169 pS
